Residue numbers refer to the chain shown, from its start. Numbers in names are those of the source.
T1: recombinant human LAG-3 (human, UniProt P18627 23-450, limits assumed)
T1 sequence (looked up): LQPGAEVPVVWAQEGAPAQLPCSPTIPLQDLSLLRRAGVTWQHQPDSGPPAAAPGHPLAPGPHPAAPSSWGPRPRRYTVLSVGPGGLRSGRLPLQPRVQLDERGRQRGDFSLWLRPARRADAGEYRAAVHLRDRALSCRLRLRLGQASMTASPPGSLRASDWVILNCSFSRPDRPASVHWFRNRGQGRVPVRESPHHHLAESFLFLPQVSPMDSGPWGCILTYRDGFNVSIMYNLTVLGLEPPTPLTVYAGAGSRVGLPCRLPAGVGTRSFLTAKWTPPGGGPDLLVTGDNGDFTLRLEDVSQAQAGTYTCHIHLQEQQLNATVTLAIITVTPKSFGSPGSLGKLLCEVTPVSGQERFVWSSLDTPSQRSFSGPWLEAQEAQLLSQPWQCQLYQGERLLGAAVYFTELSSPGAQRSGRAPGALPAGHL

T2: human LAG-3 expressed on cells (human, UniProt P18627 23-525)
T2 construct: whole, on cells; also called CD223
T2 sequence (looked up): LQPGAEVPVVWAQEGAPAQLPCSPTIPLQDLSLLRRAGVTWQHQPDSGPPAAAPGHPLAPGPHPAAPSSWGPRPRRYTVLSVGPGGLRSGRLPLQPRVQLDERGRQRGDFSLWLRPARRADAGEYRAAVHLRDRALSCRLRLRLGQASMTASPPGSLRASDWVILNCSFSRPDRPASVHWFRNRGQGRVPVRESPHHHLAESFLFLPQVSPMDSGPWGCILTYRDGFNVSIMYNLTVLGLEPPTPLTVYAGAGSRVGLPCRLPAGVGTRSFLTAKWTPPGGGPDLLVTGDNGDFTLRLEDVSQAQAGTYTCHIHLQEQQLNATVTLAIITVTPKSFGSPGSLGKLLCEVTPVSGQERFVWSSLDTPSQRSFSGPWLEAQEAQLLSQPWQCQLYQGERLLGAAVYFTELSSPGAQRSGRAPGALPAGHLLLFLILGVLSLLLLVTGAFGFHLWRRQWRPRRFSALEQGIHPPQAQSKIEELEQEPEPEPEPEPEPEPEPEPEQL

T3: human LAG-3 (human, UniProt P18627 23-450, limits assumed)
T3 construct: Selections used human LAG-3-Fc, human LAG-3-6His, a 30 aa LAG-3 peptide and/or cells with cynomolgus LAG-3; also called CD223
T3 sequence (looked up): T1 sequence (looked up)

B1: P13B02-06 (antibody, IgG1, V domains shown)
VH: QVQLVQSGAEVKKPGASVKVSCKASGFNIKDTYIHWVRQAPGQGLEWMGEIDPANDNTKYDPKFQGRVTITADTSTSTVYMELSSLRSEDTAVYYCATYYYRYDVGGFDYWGQGTLVTVSS
VL: EIVLTQSPGTLSLSPGERATLSCSVSSSISSSNLHWYQQKPGQAPRLLIYGTSNLASGIPDRFSGSGSGTDFTLTISRLEPEDFAVYYCQQWSSYPFTFGQGTKVEIK
notes: Humanized; generated as full length IgG1; also called P13B02-06 (IgG1)
B2: P13B02-16 (antibody, IgG1, V domains shown)
VH: B1 VH with L4M, V5K, K23T, T76S, S77N
VL: B1 VL
notes: Humanized; generated as full length IgG1; also called P13B02-16 (IgG1)
B3: P13B02-07 (antibody, IgG1, V domains shown)
VH: B1 VH
VL: B1 VL with D71S, F72Y
notes: Humanized; generated as full length IgG1; also called P13B02-07 (IgG1)
B4: P13B02-25 (antibody, IgG1, V domains shown)
VH: B1 VH with L4M, V5K, K12V, K23T, M48I, T76S, S77N, M81L, E82Q
VL: B1 VL with V3L, S22T, Y37F, A44S, L48W, I59V, D71S, F72Y
notes: Humanized; generated as full length IgG1; also called P13B02-25 (IgG1)
B5: P13B02-26 (antibody, IgG1, V domains shown)
VH: B1 VH with L4M, V5K, K12V, K23T, M48I, T76S, S77N, M81L, E82Q, R102K
VL: B1 VL with V3L, S22T, Y37F, A44S, L48W, I59V, D71S, F72Y
notes: Humanized; VH is H4_R98K; generated as full length IgG1; also called P13B02-26 (IgG1)
B6: P13B02-27 (antibody, IgG1, V domains shown)
VH: B1 VH with L4M, V5K, K12V, K23T, M48I, T76S, S77N, M81L, E82Q, D104E
VL: B1 VL with V3L, S22T, Y37F, A44S, L48W, I59V, D71S, F72Y
notes: Humanized; VH is H4_D100E; generated as full length IgG1; also called P13B02-27 (IgG1)
B7: P16H05 Fab (Fab, V domains shown)
VH: QVQLQQPGAELVKPGASVKLSCTASGFNIKDNYIHWVKQRPEQGLEWIGSIDPANGNTKYDPKFQGKASITADTSSNTAYLQLSSLTSEDTAVYYCASYFYRYDVGGFDYWGQGTTLTVS
VL: EIVLTQSPALMAASPGEKVTITCSVSSSISSSNLHWYQQKSGTSPKLWIYGTSNLASGVPVRFSGSGSGTSYSLTISSMEAEDAATYYCQQWSSYPHTFGGGTKLEIK
notes: Murine Fab, periplasmic extract
B8: P13A06 Fab (Fab, V domains shown)
VH: QVQLKQSGAELVKPGASVKLSCTASGFNIKDTYMYWVKQRPEQGLEWIGRIDPANGNTKYDPKFQGKATITADTSSNTVYLQLSSLTSEDTAVFYCVIYSYRYDVGGFDYWGQGTTLTVS
VL: B7 VL with I2N
notes: as for B7
B9: P13B02 Fab (Fab, V domains shown)
VH: B7 VH with L4M, Q5K, P7S, N32T, S50E, G56D, S69T, S98T, F100Y
VL: B7 VL with V3L, Y37F, H97F, G101S
notes: as for B7
B10: P13B03 Fab (Fab, V domains shown)
VH: B7 VH with Q1E, P7S, N32T, S50E, S69T, S98T, F100Y
VL: B7 VL with I2N, Y37F, H97F, G101S
notes: as for B7
B11: P13B02-30 (IgG1 G1m17 N297A) (antibody, V domains shown)
VH: B1 VH with L4M, R102K
VL: B1 VL
notes: Full length antibody containing IgG1 G1m17 allotype with a N297A mutation (EU)
B12: P13B02-30 (IgG4) (antibody, V domains shown)
VH: B1 VH with L4M, R102K
VL: B1 VL
B13: full length chimeric anti-LAG-3 antibody P13B02 (antibody, V domains shown)
VH: B7 VH with L4M, Q5K, P7S, N32T, S50E, G56D, S69T, S98T, F100Y
VL: B7 VL with V3L, Y37F, H97F, G101S
notes: Murine variable regions on human heavy (Ch1, Ch2, Ch3) and light (CL) constant regions; full-length IgG1 chimeric antibody; also called chimeric antibody P13B02 (IgG1)

These binders were tested against T1, recombinant human LAG-3 (assay: surface plasmon resonance (data not shown)).
B1: binds. B2: binds. B3: binds. B4: binds. B5: binds. B6: binds.

What follows are binders tested against T2, human LAG-3 expressed on cells (assay: flow cytometry, Fab periplasmic extract on Jurkat cells expressing human LAG-3 (FIGS. 1A-1C)).
Method: The anti-LAG-3 Fabs from periplasmic extracts were tested for binding to LAG-3-expressing cells using flow cytometry. Briefly, wild type and human LAG-3-expressing Jurkat cells were plated at 2×10⁵ cells/well in sample buffer (PBS (Gibco, Cat #10010-015)+0.5% FBS (Gibco, Cat #10270-106)) in 96-well U-bottom plates (Sarstedt). 22 μl of anti-LAG-3 Fab periplasmic extract and 83 μl of diluted anti-c-myc antibody (Gentaur, Clone #9E10, Cat #04-cmyc-9E10) were incubated for 30 minutes at room temperature. 100 μl of the periplasmic extract/anti-c-myc mixture was added to cells and then incubated for one hour on ice. Cells were washed three times and then incubated with a goat anti-mouse APC (BD Biosciences, Cat #550826) for 30 minutes on ice. Cells were washed three times and then analyzed with a FACS machine (BD Accuri6).
B7: binds. B8: binds. B9: binds. B10: binds.

These binders were tested against T3, human LAG-3 (assay: Fab phage display selection; periplasmic extracts screened by ELISA or flow cytometry).
Description: Anti-LAG-3 antibodies were identified by generation and selection of an immunized Fab phage display library. […] Per mouse, a Fab library was then generated by random-primed cDNA using total RNA as a template to amplify variable regions from mouse antibody genes. Heavy and kappa chain amplicons were combined and cloned into phagemid vectors. […] The 30 amino acid human LAG-3 peptide is a biotinylated peptide comprising the amino acid sequence of […] (SEQ ID NO: 199). Periplasmic extracts of selected Fab clones were then screened by ELISA or flow cytometry. Antibody sequencing and off-rate analysis were then performed on anti-LAG-3 Fabs.
B7: binds. B8: binds. B9: binds. B10: binds.

These binders were tested against T2, human LAG-3 expressed on cells (assay: flow cytometry, 10 ug/ml antibody on SEA-activated primary human CD4+ T cells (FIG. 6A)).
B1: binds. B2: binds. B3: binds. B4: binds. B11: binds. B12: binds. B5: binds. B6: binds. B13: binds.

Reference: patent publication US20250206818A1 (AGENUS, published 2025)
